The source of these data is IntAct's records for PubMed 18020948.

First the molecules themselves.
B1: Integrin alpha-L (Homo sapiens), P20701 (parent)
chain: MKDSCITVMAMALLSGFFFFAPASSYNLDVRGARSFSPPRAGRHFGYRVLQVGNGVIVGAPGEGNSTGSLYQCQSGTGHCLPVTLRGSNYTSKYLGMTLATDPTDGSILACDPGLSRTCDQNTYLSGLCYLFRQNLQGPMLQGRPGFQECIKGNVDLVFLFDGSMSLQPDEFQKILDFMKDVMKKLSNTSYQFAAVQFSTSYKTEFDFSDYVKRKDPDALLKHVKHMLLLTNTFGAINYVATEVFREELGARPDATKVLIIITDGEATDSGNIDAAKDIIRYIIGIGKHFQTKESQETLHKFASKPASEFVKILDTFEKLKDLFTELQKKIYVIEGTSKQDLTSFNMELSSSGISADLSRGHAVVGAVGAKDWAGGFLDLKADLQDDTFIGNEPLTPEVRAGYLGYTVTWLPSRQKTSLLASGAPRYQHMGRVLLFQEPQGGGHWSQVQTIHGTQIGSYFGGELCGVDVDQDGETELLLIGAPLFYGEQRGGRVFIYQRRQLGFEEVSELQGDPGYPLGRFGEAITALTDINGDGLVDVAVGAPLEEQGAVYIFNGRHGGLSPQPSQRIEGTQVLSGIQWFGRSIHGVKDLEGDGLADVAVGAESQMIVLSSRPVVDMVTLMSFSPAEIPVHEVECSYSTSNKMKEGVNITICFQIKSLIPQFQGRLVANLTYTLQLDGHRTRRRGLFPGGRHELRRNIAVTTSMSCTDFSFHFPVCVQDLISPINVSLNFSLWEEEGTPRDQRAQGKDIPPILRPSLHSETWEIPFEKNCGEDKKCEANLRVSFSPARSRALRLTAFASLSVELSLSNLEEDAYWVQLDLHFPPGLSFRKVEMLKPHSQIPVSCEELPEESRLLSRALSCNVSSPIFKAGHSVALQMMFNTLVNSSWGDSVELHANVTCNNEDSDLLEDNSATTIIPILYPINILIQDQEDSTLYVSFTPKGPKIHQVKHMYQVRIQPSIHDHNIPTLEAVVGVPQPPSEGPITHQWSVQMEPPVPCHYEDLERLPDAAEPCLPGALFRCPVVFRQEILVQVIGTLELVGEIEASSMFSLCSSLSISFNSSKHFHLYGSNASLAQVVMKVDVVYEKQMLYLYVLSGIGGLLLLLLIFIVLYKVGFFKRNLKEKMEAGRGVPNGIPAEDSEQLASGQEAGDPGCLKPLHEKDSESGGGKD
partner: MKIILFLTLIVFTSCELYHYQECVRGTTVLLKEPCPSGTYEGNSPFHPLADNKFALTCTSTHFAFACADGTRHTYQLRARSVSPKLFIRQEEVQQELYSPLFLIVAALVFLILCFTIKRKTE

In the experiment the parent is B1. Conditions: with ns7a_sars ns7a.
As to K288C;K293C, the “effect of a mutation on the interaction” value is given as “increasing interaction strength”.
